Reference: patent US20100129369A1

What was measured:
human c-Met (human) = human c-Met (human) (UniProt P08581); experiment: cell-based or functional assay
[1] = molecular target: human c-Met ECD-Fc-Flis (human); experiment: HGF-blocking ELISA: HGF signal on coated c-Met ECD-Fc-Flis; Ab 0.48 ng/mL
[2] = molecular target: human c-Met ECD-Fc-Flis (human); experiment: HGF-blocking ELISA: HGF signal on coated c-Met ECD-Fc-Flis; Ab 1.91 ng/mL
[3] = molecular target: human c-Met ECD-Fc-Flis (human); experiment: HGF-blocking ELISA: HGF signal on coated c-Met ECD-Fc-Flis; Ab 7.63 ng/mL
[4] = molecular target: human c-Met ECD-Fc-Flis (human); experiment: HGF-blocking ELISA: HGF signal on coated c-Met ECD-Fc-Flis; Ab 30.52 ng/mL
[5] = molecular target: human c-Met ECD-Fc-Flis (human); experiment: HGF-blocking ELISA: HGF signal on coated c-Met ECD-Fc-Flis; Ab 122.07 ng/mL
[6] = molecular target: human c-Met ECD-Fc-Flis (human); experiment: HGF-blocking ELISA: HGF signal on coated c-Met ECD-Fc-Flis; Ab 488.28 ng/mL
[7] = molecular target: human c-Met ECD-Fc-Flis (human); experiment: HGF-blocking ELISA: HGF signal on coated c-Met ECD-Fc-Flis; Ab 1953.13 ng/mL
[8] = molecular target: human c-Met ECD-Fc-Flis (human); experiment: HGF-blocking ELISA: HGF signal on coated c-Met ECD-Fc-Flis; Ab 7812.50 ng/mL
[9] = molecular target: human c-Met ECD-Fc-Flis (human); experiment: HGF-blocking ELISA: HGF signal on coated c-Met ECD-Fc-Flis; Ab 31250.00 ng/mL
[10] = molecular target: human c-Met ECD-Fc-Flis (human); experiment: HGF-blocking ELISA: HGF signal on coated c-Met ECD-Fc-Flis; Ab 125000.00 ng/mL
[11] = molecular target: human c-Met ECD-Fc-Flis (human); experiment: HGF-blocking ELISA: HGF signal on coated c-Met ECD-Fc-Flis; Ab 0.00 ng/mL (HGF only)

Sequence of human hepatocyte growth factor (HGF) (P14210 32-728 limits assumed): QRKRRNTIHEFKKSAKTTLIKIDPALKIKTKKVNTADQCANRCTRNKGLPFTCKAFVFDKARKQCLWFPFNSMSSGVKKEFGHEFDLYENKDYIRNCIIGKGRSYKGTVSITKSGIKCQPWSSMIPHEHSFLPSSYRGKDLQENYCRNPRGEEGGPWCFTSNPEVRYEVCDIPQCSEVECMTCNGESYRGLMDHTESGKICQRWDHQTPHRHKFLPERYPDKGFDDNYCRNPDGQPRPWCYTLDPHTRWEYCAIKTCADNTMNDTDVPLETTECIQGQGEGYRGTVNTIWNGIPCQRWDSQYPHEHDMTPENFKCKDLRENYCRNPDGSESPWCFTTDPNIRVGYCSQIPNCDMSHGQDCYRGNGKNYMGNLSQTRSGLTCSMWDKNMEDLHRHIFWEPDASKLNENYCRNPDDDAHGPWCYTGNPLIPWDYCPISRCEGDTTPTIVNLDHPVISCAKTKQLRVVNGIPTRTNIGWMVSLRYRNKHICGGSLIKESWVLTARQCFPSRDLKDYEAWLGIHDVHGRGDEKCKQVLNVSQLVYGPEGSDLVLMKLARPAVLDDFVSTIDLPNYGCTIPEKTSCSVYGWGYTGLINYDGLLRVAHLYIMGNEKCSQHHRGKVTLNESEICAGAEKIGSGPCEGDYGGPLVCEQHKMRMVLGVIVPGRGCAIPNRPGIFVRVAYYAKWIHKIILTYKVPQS
Sequence of human c-Met (human) (P08581 25-1390): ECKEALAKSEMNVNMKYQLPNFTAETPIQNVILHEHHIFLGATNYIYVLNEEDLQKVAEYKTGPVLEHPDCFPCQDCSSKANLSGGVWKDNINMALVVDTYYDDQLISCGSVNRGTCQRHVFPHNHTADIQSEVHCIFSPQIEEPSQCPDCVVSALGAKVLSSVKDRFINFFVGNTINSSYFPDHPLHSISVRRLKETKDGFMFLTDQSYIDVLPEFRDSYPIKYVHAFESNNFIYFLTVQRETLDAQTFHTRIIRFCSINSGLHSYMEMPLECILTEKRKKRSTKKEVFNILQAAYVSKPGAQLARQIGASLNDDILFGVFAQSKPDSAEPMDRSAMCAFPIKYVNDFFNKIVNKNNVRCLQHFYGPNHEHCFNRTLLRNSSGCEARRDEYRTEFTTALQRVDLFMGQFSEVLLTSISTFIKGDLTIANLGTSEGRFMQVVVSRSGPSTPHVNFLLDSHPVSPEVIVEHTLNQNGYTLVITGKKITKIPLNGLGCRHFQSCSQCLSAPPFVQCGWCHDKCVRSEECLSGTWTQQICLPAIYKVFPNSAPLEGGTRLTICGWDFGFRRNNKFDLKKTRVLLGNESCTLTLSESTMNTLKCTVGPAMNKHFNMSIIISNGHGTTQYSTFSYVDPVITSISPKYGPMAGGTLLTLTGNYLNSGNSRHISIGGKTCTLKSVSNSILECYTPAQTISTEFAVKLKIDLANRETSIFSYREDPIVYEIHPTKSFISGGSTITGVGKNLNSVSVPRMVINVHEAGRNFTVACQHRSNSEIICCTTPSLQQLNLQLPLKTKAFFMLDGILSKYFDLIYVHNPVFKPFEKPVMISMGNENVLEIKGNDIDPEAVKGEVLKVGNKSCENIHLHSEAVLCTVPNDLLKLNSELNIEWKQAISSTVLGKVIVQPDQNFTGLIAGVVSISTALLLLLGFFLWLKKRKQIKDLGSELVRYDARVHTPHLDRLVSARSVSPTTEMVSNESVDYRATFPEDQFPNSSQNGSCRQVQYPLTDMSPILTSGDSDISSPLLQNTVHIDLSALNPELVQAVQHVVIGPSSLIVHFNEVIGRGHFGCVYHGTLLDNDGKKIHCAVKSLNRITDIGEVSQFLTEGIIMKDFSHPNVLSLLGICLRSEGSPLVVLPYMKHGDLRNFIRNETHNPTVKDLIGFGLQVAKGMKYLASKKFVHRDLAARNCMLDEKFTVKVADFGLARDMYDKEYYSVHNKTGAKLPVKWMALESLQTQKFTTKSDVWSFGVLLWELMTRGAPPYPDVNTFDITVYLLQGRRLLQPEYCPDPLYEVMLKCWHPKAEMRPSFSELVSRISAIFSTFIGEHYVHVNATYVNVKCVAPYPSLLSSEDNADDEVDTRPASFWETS
Sequence of human c-Met ECD-Fc-Flis (human) (chain, as listed by the source): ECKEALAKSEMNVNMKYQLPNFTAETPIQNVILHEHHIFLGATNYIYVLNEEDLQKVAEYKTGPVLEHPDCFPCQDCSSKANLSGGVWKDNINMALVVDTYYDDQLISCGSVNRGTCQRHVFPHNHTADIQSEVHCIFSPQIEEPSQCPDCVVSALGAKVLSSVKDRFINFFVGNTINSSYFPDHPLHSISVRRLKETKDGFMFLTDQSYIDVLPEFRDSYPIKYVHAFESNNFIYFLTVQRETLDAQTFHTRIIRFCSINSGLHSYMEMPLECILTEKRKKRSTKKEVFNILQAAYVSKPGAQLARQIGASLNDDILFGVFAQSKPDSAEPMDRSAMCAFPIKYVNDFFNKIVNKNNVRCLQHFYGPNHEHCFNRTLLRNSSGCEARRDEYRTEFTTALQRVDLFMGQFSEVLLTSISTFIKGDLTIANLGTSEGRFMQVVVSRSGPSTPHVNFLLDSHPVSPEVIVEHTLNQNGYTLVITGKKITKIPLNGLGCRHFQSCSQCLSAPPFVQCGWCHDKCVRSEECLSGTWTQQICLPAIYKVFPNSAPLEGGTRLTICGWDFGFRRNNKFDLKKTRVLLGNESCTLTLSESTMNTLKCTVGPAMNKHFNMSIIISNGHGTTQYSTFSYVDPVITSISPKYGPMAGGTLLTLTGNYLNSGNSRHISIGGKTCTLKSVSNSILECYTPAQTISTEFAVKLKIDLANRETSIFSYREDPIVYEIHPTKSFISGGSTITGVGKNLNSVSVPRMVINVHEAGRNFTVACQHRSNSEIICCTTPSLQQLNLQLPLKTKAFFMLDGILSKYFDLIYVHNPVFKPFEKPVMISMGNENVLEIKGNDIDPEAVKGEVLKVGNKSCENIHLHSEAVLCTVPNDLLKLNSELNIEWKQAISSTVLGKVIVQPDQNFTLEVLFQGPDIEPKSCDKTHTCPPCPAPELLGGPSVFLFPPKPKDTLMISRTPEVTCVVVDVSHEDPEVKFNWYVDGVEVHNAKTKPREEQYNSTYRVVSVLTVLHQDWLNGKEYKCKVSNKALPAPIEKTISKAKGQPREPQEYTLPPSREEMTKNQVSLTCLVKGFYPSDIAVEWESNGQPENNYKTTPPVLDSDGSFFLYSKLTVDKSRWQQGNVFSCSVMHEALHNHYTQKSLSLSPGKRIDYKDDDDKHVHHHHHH

Substance | % inhibition of HGF stimulated phospho-Met (ELISA, HCT116 cells), Ab 0.0032 µg/mL (human c-Met (human)) [%] | % inhibition of HGF stimulated phospho-Met (ELISA, HCT116 cells), Ab 0.016 µg/mL (human c-Met (human)) [%] | % inhibition of HGF stimulated phospho-Met (ELISA, HCT116 cells), Ab 0.08 µg/mL (human c-Met (human)) [%] | % inhibition of HGF stimulated phospho-Met (ELISA, HCT116 cells), Ab 0.4 µg/mL (human c-Met (human)) [%] | % inhibition of HGF stimulated phospho-Met (ELISA, HCT116 cells), Ab 2 µg/mL (human c-Met (human)) [%] | % inhibition of HGF stimulated phospho-Met (ELISA, HCT116 cells), Ab 10 µg/mL (human c-Met (human)) [%] | AVG CPM, 3H-thymidine incorporation in MKN45 cells, Ab 0.0 ng/mL (no antibody) (human c-Met (human)) [CPM] | AVG CPM, 3H-thymidine incorporation in MKN45 cells, Ab 0.1 ng/mL (human c-Met (human)) [CPM] | AVG CPM, 3H-thymidine incorporation in MKN45 cells, Ab 0.4 ng/mL (human c-Met (human)) [CPM] | AVG CPM, 3H-thymidine incorporation in MKN45 cells, Ab 2.6 ng/mL (human c-Met (human)) [CPM] | AVG CPM, 3H-thymidine incorporation in MKN45 cells, Ab 15.4 ng/mL (human c-Met (human)) [CPM] | AVG CPM, 3H-thymidine incorporation in MKN45 cells, Ab 92.6 ng/mL (human c-Met (human)) [CPM] | AVG CPM, 3H-thymidine incorporation in MKN45 cells, Ab 555.6 ng/mL (human c-Met (human)) [CPM] | AVG CPM, 3H-thymidine incorporation in MKN45 cells, Ab 3333.3 ng/mL (human c-Met (human)) [CPM] | AVG CPM, 3H-thymidine incorporation in MKN45 cells, Ab 20000.0 ng/mL (human c-Met (human)) [CPM] | Mean Fluorescence (c-Met left on the surface of MKN45 cells, FACS), Ab 5.00 ug/mL (human c-Met (human)) | AVG A450 nm [1] [A450 nm] | AVG A450 nm [2] [A450 nm] | AVG A450 nm [3] [A450 nm] | AVG A450 nm [4] [A450 nm] | also measured
Murine IgG1 c-Met antibody 5D5 | -6.07 | -3.5 | 11.9 | 42.5 | 63.8 | 64.1 | 50300 | 51900 | 49600 | 55000 | 49800 | 39600 | 39500 | 38200 | 35100 | 92.9 | – | – | – | – | 3H-Thymidine Incorporation in Caki-1 Cells in the Absence of HGF (AVG CPM), antibody dose 0.1 ng/mL (human c-Met (human)): 14400 CPM; 3H-Thymidine Incorporation in Caki-1 Cells in the Absence of HGF (AVG CPM), antibody dose 0.4 ng/mL (human c-Met (human)): 12900 CPM; 3H-Thymidine Incorporation in Caki-1 Cells in the Absence of HGF (AVG CPM), antibody dose 2.6 ng/mL (human c-Met (human)): 12500 CPM; 3H-Thymidine Incorporation in Caki-1 Cells in the Absence of HGF (AVG CPM), antibody dose 15.4 ng/mL (human c-Met (human)): 11700 CPM; 3H-Thymidine Incorporation in Caki-1 Cells in the Absence of HGF (AVG CPM), antibody dose 92.6 ng/mL (human c-Met (human)): 15600 CPM; 3H-Thymidine Incorporation in Caki-1 Cells in the Absence of HGF (AVG CPM), antibody dose 555.6 ng/mL (human c-Met (human)): 20000 CPM; 3H-Thymidine Incorporation in Caki-1 Cells in the Absence of HGF (AVG CPM), antibody dose 3333.3 ng/mL (human c-Met (human)): 19000 CPM; 3H-Thymidine Incorporation in Caki-1 Cells in the Absence of HGF (AVG CPM), antibody dose 20000.0 ng/mL (human c-Met (human)): 19900 CPM; 3H-Thymidine Incorporation in Primary Human Hepatocytes in the Absence of HGF (average), dose 0.0032 ug/mL (human c-Met (human)): 822; 3H-Thymidine Incorporation in Primary Human Hepatocytes in the Absence of HGF (average), dose 0.016 ug/mL (human c-Met (human)): 1720; 3H-Thymidine Incorporation in Primary Human Hepatocytes in the Absence of HGF (average), dose 0.08 ug/mL (human c-Met (human)): 3320; 3H-Thymidine Incorporation in Primary Human Hepatocytes in the Absence of HGF (average), dose 0.4 ug/mL (human c-Met (human)): 3760; 3H-Thymidine Incorporation in Primary Human Hepatocytes in the Absence of HGF (average), dose 2 ug/mL (human c-Met (human)): 4910; 3H-Thymidine Incorporation in Primary Human Hepatocytes in the Absence of HGF (average), dose 10 ug/mL (human c-Met (human)): 4980; H441 Scratch Assay, Avg. %, antibody 10 ug/mL (human c-Met (human)): 244%; HepG2 Cell Invasiveness, Average Cell Number Per 2.5x Field, antibody 10.00 ug/mL (cells per 2.5x field) (human c-Met (human)): 85; Percent of DU145 Cells in Colonies (scatter assay), antibody 20 ug/mL (human c-Met (human)): 14.4%; Tube Formation in ECFC Cells, Total Tube Area (Avg.), antibody 10 ug/mL (human c-Met (human)): 147000; Tubular Morphogenesis Agonist activity (fold stimulation) in HepG2 cells, antibody 50 ug/ml (fold stimulation) (human c-Met (human)): 4.9; p-Met signal (pY1349 ELISA, A549 cells), Ab Conc. 5 (ng/mL as printed) (human c-Met (human)): 3.29
human hepatocyte growth factor (HGF) (from UniProt P14210 32-728) (ligand) | – | – | – | – | – | – | – | – | – | – | – | – | – | – | – | – | – | – | – | – | 3H-Thymidine Incorporation in Primary Human Hepatocytes (ave), HGF 200 ng/mL (human c-Met (human)): 6290; H441 Scratch Assay, Avg. %, HGF 200 ng/mL (human c-Met (human)): 364%; HepG2 Cell Invasiveness, Average Cell Number Per 2.5x Field, HGF 50 ng/mL (cells per 2.5x field) (human c-Met (human)): 510; Percent of DU145 Cells in Colonies (scatter assay), HGF 20 ng/mL (human c-Met (human)): 8.15%; Staurosporine-Induced Apoptosis in Caki-1 Cells, Average A450 nm, HGF 0.02 ng/mL (human c-Met (human)): 0.97 A450 nm; Staurosporine-Induced Apoptosis in Caki-1 Cells, Average A450 nm, HGF 0.23 ng/mL (human c-Met (human)): 0.93 A450 nm; Staurosporine-Induced Apoptosis in Caki-1 Cells, Average A450 nm, HGF 2.25 ng/mL (human c-Met (human)): 0.73 A450 nm; Staurosporine-Induced Apoptosis in Caki-1 Cells, Average A450 nm, HGF 22.5 ng/mL (human c-Met (human)): 0.58 A450 nm; Staurosporine-Induced Apoptosis in Caki-1 Cells, Average A450 nm, HGF 225 ng/mL (human c-Met (human)): 0.45 A450 nm; Tube Formation in ECFC Cells, Total Tube Area (Avg.), HGF 100 ng/mL (human c-Met (human)): 212000; Tubular Morphogenesis Agonist activity (fold stimulation) in HepG2 cells, HGF 50 ng/ml (fold stimulation) (human c-Met (human)): 5.4
humanized IgG2 isotype control antibody | -10.2 | 9.49 | -1.58 | 9.31 | 17.5 | 6.24 | 50400 | 44800 | 46500 | 48500 | 50500 | 47600 | 51700 | 49400 | 45100 | 130 | 2.46 | 2.87 | 2.7 | 2.41 | AVG A450 nm [5]: 2.52 A450 nm; AVG A450 nm [6]: 2.53 A450 nm; AVG A450 nm [7]: 2.43 A450 nm; AVG A450 nm [8]: 2.5 A450 nm; AVG A450 nm [9]: 2.5 A450 nm; AVG A450 nm [10]: 2.43 A450 nm; AVG A450 nm [11]: 2.43 A450 nm
humanized IgG4 isotype control antibody | -14.4 | -7.96 | -21.7 | -16.1 | -6.62 | -1.47 | 48700 | 53900 | 55300 | 54800 | 53800 | 54300 | 54200 | 54000 | 50600 | 135 | 2.41 | 2.49 | 2.88 | 2.63 | p-Met signal (pY1349 ELISA, A549 cells), Ab 0.002 µg/mL (human c-Met (human)): 0.117; p-Met signal (pY1349 ELISA, A549 cells), Ab 0.005 µg/mL (human c-Met (human)): 0.074; p-Met signal (pY1349 ELISA, A549 cells), Ab 0.014 µg/mL (human c-Met (human)): 0.074; p-Met signal (pY1349 ELISA, A549 cells), Ab 0.041 µg/mL (human c-Met (human)): 0.268; p-Met signal (pY1349 ELISA, A549 cells), Ab 0.123 µg/mL (human c-Met (human)): 0.067; p-Met signal (pY1349 ELISA, A549 cells), Ab 0.370 µg/mL (human c-Met (human)): 0.082; p-Met signal (pY1349 ELISA, A549 cells), Ab 1.113 µg/mL (human c-Met (human)): 0.087; p-Met signal (pY1349 ELISA, A549 cells), Ab 3.333 µg/mL (human c-Met (human)): 0.068; p-Met signal (pY1349 ELISA, A549 cells), Ab 10 µg/mL (human c-Met (human)): 0.077; p-Met signal (pY1349 ELISA, A549 cells), Ab 30 µg/mL (human c-Met (human)): 0.061; AVG A450 nm [5]: 2.44 A450 nm; AVG A450 nm [6]: 2.44 A450 nm; AVG A450 nm [7]: 2.27 A450 nm; AVG A450 nm [8]: 2.49 A450 nm; AVG A450 nm [9]: 2.67 A450 nm; AVG A450 nm [10]: 3 A450 nm; AVG A450 nm [11]: 2.61 A450 nm
murine IgG isotype control antibody | -9.76 | -5.42 | -10.6 | 13.4 | 9.76 | 5.46 | 50300 | 47700 | 51500 | 55500 | 51300 | 52200 | 54700 | 53700 | 52400 | 136 | – | – | – | – | –
